Measured values from patent US20240309109A1 (MorphoSys, published 2024).
Substitutions are numbered along the chain they refer to. One block for each binder: values may come before it.

Legend:
[1] = target: T1, human CD38 Fc-fusion aa 45-300 (human, UniProt P28907 45-300); assay: SPR (Biacore), Fab on immobilized CD38 Fc-fusion
T1 construct: Expressed in HEK293 behind a human Vkappa leader, which is left out here; also called CD38-Fc fusion protein; CD38 Fc-Fusion protein

[2] = target: CD38 (antigen of the Bioveris affinity determination) (Homo sapiens (Human), UniProt P28907 45-300, limits assumed); assay: Bioveris, Fab format
[3] = target: T1, human CD38 Fc-fusion aa 45-300; assay: SPR (Biacore), Fab format
human CD38 on cells [4] = target: T2, human CD38 on cells (human, UniProt P28907 1-300); assay: FACS Scatchard on RPMI8226 cells
T2 construct: The cell that carried CD38 is named under assay in each row; also called CD38 on Raji, RPMI8226, OPM2, CCRF-CEM, human erythrocytes, CD38 CHO-K1 transfectants

[5] = target: T3, Cynomolgus CD38 on Erythrocytes (cynomolgus monkey, UniProt Q5VAN0); assay: FACS, Fab format, cynomolgus erythrocytes
T3 construct: native protein on erythrocytes (pellet of the density gradient)

[6] = target: T4, Cynomolgus CD38 on PBMCs (Lymphocytes) (cynomolgus monkey, UniProt Q5VAN0); assay: FACS, Fab format, cynomolgus lymphocytes (PBMC fraction)
T4 construct: native protein on lymphocytes of the PBMC fraction of whole blood

human CD38 on cells [7] = target: T2, human CD38 on cells; assay: FACS Scatchard on OPM2 cells, IgG format
[8] = target: T1, human CD38 Fc-fusion aa 45-300; assay: ELISA on CD38 Fc-fusion protein, IgG format
human CD38 on cells [9] = target: T2, human CD38 on cells; assay: FACS Scatchard, IgG1 on Raji cells
human CD38 on cells [10] = target: T2, human CD38 on cells; assay: FACS Scatchard on RPMI8226 cells; * different experiment
[11] = target: T3, Cynomolgus CD38 on Erythrocytes; assay: FACS, Fab format, cynomolgus erythrocytes; column taken from the order of panel A [Continued]
[12] = target: T4, Cynomolgus CD38 on PBMCs (Lymphocytes); assay: FACS, Fab format, cynomolgus lymphocytes (PBMC fraction); column taken from the order of panel A [Continued]

B2: MOR03101 Fab (Fab, V domains shown)
VH: QVQLKESGPALVKPTQTLTLTCTFSGFSLSTSRVGVSWIRQPPGKALEWLAHIDWNDDKYYSTSLKTRLTISKDTSKNQVVLTMTNMDPVDTATYYCAREDRLLGGYGYDVWGQGTLVTVSS
VL: DIELTQPPSVSVAPGQTARISCSGDSLGSYYVHWYQQKPGQAPVLVIGDDTKRPSGIPERFSGSNSGNTATLTISGTQAEDEADYYCGSRTGYNNSFVFGGGTKLTVLG
notes: Fab format
Kd [1]: 314 nM

B3: MOR03087 Fab (Fab, V domains shown)
VH: QVQLVESGGGLVQPGGSLRLSCAASGFTFSSYYMNWVRQAPGKGLEWVSGISGDPSNTYYADSVKGRFTISRDNSKNTLYLQMNSLRAEDTAVYYCARDLPLVYTGFAYWGQGTLVTVSS
VL: DIELTQPPSVSVAPGQTARISCSGDNLRHYYVYWYQQKPGQAPVLVIYGDSKRPSGIPERFSGSNSGNTATLTISGTQAEDEADYYCQTYTGGASLVFGGGTKLTVLG
notes: Fab format
Kd [2]: 0.0488 nM
Kd [3]: 5.68 nM
EC50 (human CD38 on cells [4]): 5.37 nM
binding result [5]: binds
binding result [6]: binds

B11: MOR03086 Fab (Fab, V domains shown)
VH: QVQLVESGGGLVQPGGSLRLSCAASGFTFTSYYMHWVRQAPGKGLEWVSYIDSSGSSTYYADSVKGRFTISRDNSKNTLYLQMNSLRAEDTAVYYCARQLMPFGGYFDVWGQGTLVTVSS
VL: DIQMTQSPSSLSASVGDRVTITCRASQNISQWLNWYQQKPGKAPKLLIYGASNLQSGVPSRFSGSGSGTDFTLTISSLQPEDFATYYCQQYYDLPNTFGQGTKVEIKR
notes: Fab format
Kd [1]: 30 nM

B12: MOR03102 Fab (Fab, V domains shown)
VH: QVQLQESGPGLVKPGETLSLTCTVSGGSISGNYWSWIRQAPGKGLEWIGDYHGSTYYNPSLKGRVTISVDTSKNQFSLKLSSVTAEDTAVYYCAREQYHWGLAWTGFDNWGQGTLVTVSS
VL: DIELTQPPSVSVAPGQTARISCSGDNLGHYYVSWYQQKPGQAPVLVIYDDSDRPSGIPERFSGSNSGNTATLTISGTQAEDEADYYCGAYAMHMTVFGGGTKLTVLG
notes: Fab format
Kd [1]: 64 nM

B13: MOR03102 IgG1 (antibody, V domains shown)
VH: B12 VH
VL: B12 VL
Kd (human CD38 on cells [9]): 5 nM

B14: MOR03129 Fab (Fab, V domains shown)
VH: QVQLVESGGGLVQPGGSLRLSCAASGFTFSNYSMNWVRQAPGKGLEWVSYIYGGGSYTYYADSVKGRFTISRDNSKNTLYLQMNSLRAEDTAVYYCARQAGMYFDVWGQGTLVTVSS
VL: DIELTQPPSVSVAPGQTARISCSGDNLGSKVVSWYQQKPGQAPVLVIYYDNKRPSGIPERFSGSNSGNTATLTISGTQAEDEADYYCQSYTFESGSVVFGGGTKLTVLG
notes: Fab format
Kd [1]: 43 nM

B15: MOR03088 Fab (Fab, V domains shown)
VH: QVQLVESGGGLVQPGGSLRLSCAASGFTFSSYAMNWVRQAPGKGLEWVSGISSWGSSTYYADSVKGRFTISRDNSKNTLYLQMNSLRAEDTAVYYCAREDGSYMTDYFAYWGQGTLVTVSS
VL: DIELTQPPSVSVAPGQTARISCSGDNIGHYYVSWYQQKPGQAPVLVIYSDSNRPSGIPERFSGSNSGNTATLTISGTQAEDEADYYCQSYNGTYVFGGGTKLTVLG
notes: Fab format
Kd [2]: 2.15 nM
Kd [3]: 41.4 nM
Kd [1]: 95 nM
EC50 (human CD38 on cells [10]): 24.6 nM
binding result [11]: binds
binding result [12]: binds

B18: MOR03085 Fab (Fab, V domains shown)
VH: QVQLVQSGAEVKKPGASVKVSCKASGYTFTGYYINWVRQAPGQGLEWMGWIFPNGGSTGYAQKFQGRVTMTRDTSISTAYMELSSLRSEDTAVYYCARGNIFIFDYWGQGTLVTVSS
VL: DIVLTQPPSVSGAPGQRVTISCSGSSSNIGNNYVSWYQQLPGTAPKLLIYGDDQRPSGVPDRFSGSKSGTSASLAITGLQSEDEADYYCQSYGTFSSFVFGGGTKLTVLG
notes: Fab format
Kd [1]: 122 nM

B19: MOR03085 IgG1 (antibody, V domains shown)
VH: B18 VH
VL: B18 VL
Kd (human CD38 on cells [9]): 10 nM

B20: MOR03081 IgG1 (antibody, V domains shown)
VH: QVQLVESGGGLVQPGGSLRLSCAASGFTFSSYALHWVRQAPGKGLEWVSSISGLGSTTYYADSVKGRFTISRDNSKNTLYLQMNSLRAEDTAVYYCARYHYEYHYFSSGFDNWGQGTLVTVSS
VL: DIVLTQSPATLSLSPGERATLSCRASQTGSTSYLAWYQQKPGQAPRLLIYDASKRATGVPARFSGSGSGTDFTLTISSLEPEDFATYYCHQYYNVPHTFGQGTKVEIKR
Kd (human CD38 on cells [9]): 2.5 nM

B21: MOR03089 Fab (Fab, V domains shown)
VH: QVQLKESGPALVKPTQTLTLTCTFSGFSLSSDGMGVGWIRQPPGKALEWLALIDWDDDKRYSTSLKTRLTISKDTSKNQVVLTMTNMDPVDTATYYCARFNWFYRLAFVNPDVWGQGTLVTVSS
VL: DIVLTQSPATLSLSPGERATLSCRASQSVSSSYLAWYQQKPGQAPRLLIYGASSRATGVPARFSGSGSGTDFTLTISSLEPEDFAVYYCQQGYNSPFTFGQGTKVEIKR
notes: Fab format
Kd [1]: 340 nM

Next, values leading:

Kd [1]: 451 nM
B1: MOR03131 Fab (Fab, V domains shown)
VH: QVQLKESGPALVKPTQTLTLTCTFSGFSLSNSGVGVGWIRQPPGKALEWLADIYSDTTKRYSTSLKTRLTISKDTSKNQVVLTMTNMDPVDTATYYCARYGEAYFDYWGQGTLVTVSS
VL: DIELTQPPSVSVAPGQTARISCSGDNLGNFYVHWYQQKPGQAPVLVIYEDSNRPSGIPERFSGSNSGNTATLTISGTQAEDEADYYCSSWDMYRTIFVFGGGTKLTVLG
notes: Fab format

EC50 (human CD38 on cells [7]): 9.37 nM
ELISA CD38 Fc-Fusion protein (% Reactivity of MOR03087) [8]: 145%
B4: MOR06187 IgG (antibody, V domains shown)
VH: B3 VH with G50A, G53S, D54N, P55G, S56D, N57I
VL: B3 VL

EC50 (human CD38 on cells [7]): 20.1 nM
ELISA CD38 Fc-Fusion protein (% Reactivity of MOR03087) [8]: 140%
B5: MOR06188 IgG (antibody, V domains shown)
VH: B3 VH with G50A, G53T, D54N, P55G, S56W, N57Q
VL: B3 VL

EC50 (human CD38 on cells [7]): 8.91 nM
ELISA CD38 Fc-Fusion protein (% Reactivity of MOR03087) [8]: 106%
B6: MOR06183 IgG (antibody, V domains shown)
VH: B3 VH with S52N, G53M, D54E, P55S, S56T, N57R, T58I
VL: B3 VL

EC50 (human CD38 on cells [7]): 10.6 nM
ELISA CD38 Fc-Fusion protein (% Reactivity of MOR03087) [8]: 150%
B7: MOR06184 IgG (antibody, V domains shown)
VH: B3 VH with G50A, G53H, P55G, S56N, N57V, T58K
VL: B3 VL

EC50 (human CD38 on cells [7]): 11.5 nM
ELISA CD38 Fc-Fusion protein (% Reactivity of MOR03087) [8]: 142%
B8: MOR06185 IgG (antibody, V domains shown)
VH: B3 VH with G50A, G53M, D54N, P55G, S56D, N57Y, T58I, Y59S
VL: B3 VL

EC50 (human CD38 on cells [7]): 15.6 nM
ELISA CD38 Fc-Fusion protein (% Reactivity of MOR03087) [8]: 117%
B9: MOR06186 IgG (antibody, V domains shown)
VH: B3 VH with G50A, S52N, G53L, D54S, P55G, N57A, T58K
VL: B3 VL

EC50 (human CD38 on cells [7]): 7.15 nM
ELISA CD38 Fc-Fusion protein (% Reactivity of MOR03087) [8]: 144%
B10: MOR06200 IgG (antibody, V domains shown)
VH: B3 VH with G50A, G53N, D54N, P55G, S56N, N57V
VL: B3 VL
notes: copies: 2 + 2

ELISA CD38 Fc-Fusion protein (% Reactivity of MOR03087) [8]: 56%
B16: MOR06204 IgG (antibody, V domains shown)
VH: QVQLVESGGGLVQPGGSLRLSCAASGFTFSSYAMNWVRQAPGKGLEWVSHIRKKNTSYTTEYAASVKGRFTISRDNSKNTLYLQMNSLRAEDTAVYYCAREDGSYMTDYFAYWGQGTLVTVSS
VL: B15 VL
notes: copies: 2 + 2

ELISA CD38 Fc-Fusion protein (% Reactivity of MOR03087) [8]: 109%
B17: MOR06214 IgG (antibody, V domains shown)
VH: QVQLVESGGGLVQPGGSLRLSCAASGFTFSSYAMNWVRQAPGKGLEWVSNIQRVGSTYYADSVKGRFTISRDNSKNTLYLQMNSLRAEDTAVYYCAREDGSYMTDYFAYWGQGTLVTVSS
VL: B15 VL
notes: copies: 2 + 2
